Measured values as given in patent US12319739 (F STAR DELTA, dated 2025).

How the values were obtained:
[1] = molecular target: T1, hMSLN-His-Avi (human, UniProt Q13421 296-598, single biotin on the Avi tag in the biotinylated form); assay: SPR, hMSLN-His-Avi immobilised at 50 RU
T1 construct: Monomeric; also called human MSLN-His-Avi; hMSLN-Avi-His

[2] = molecular target: T1, hMSLN-His-Avi; assay: SPR, hMSLN-His-Avi immobilised at 100 RU
[3] = molecular target: T2, human CEACAM-5-His-Fc (human, UniProt P06731 35-685); assay: ELISA, antigen coated 1 µg/ml
T2 sequence (looked up): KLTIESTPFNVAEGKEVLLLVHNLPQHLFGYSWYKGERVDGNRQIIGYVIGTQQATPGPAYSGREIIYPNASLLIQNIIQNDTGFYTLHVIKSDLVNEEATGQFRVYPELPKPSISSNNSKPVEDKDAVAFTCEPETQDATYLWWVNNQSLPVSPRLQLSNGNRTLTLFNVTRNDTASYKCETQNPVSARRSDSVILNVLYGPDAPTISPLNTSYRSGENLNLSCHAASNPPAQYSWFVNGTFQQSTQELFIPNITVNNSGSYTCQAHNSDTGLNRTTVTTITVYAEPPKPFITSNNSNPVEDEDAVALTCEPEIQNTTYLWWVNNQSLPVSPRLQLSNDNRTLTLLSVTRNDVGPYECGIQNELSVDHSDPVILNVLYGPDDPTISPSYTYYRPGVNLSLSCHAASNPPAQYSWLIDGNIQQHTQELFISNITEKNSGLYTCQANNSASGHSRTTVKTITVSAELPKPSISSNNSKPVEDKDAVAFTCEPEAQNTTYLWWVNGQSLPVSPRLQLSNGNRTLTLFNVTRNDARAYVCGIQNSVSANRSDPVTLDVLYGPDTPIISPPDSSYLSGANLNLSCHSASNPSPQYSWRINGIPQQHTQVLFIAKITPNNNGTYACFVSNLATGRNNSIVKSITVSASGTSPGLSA
Protocol: (§1) Binding of the anti-MSLN mAbs, tested at a concentration range of 0.02 to 1000 nM (3-fold dilutions) was detected using anti-human Fab-HRP (Sigma, A0293).

[4] = molecular target: T3, human E-Cadherin (human, UniProt P12830 155-707); assay: ELISA, antigen coated 1 µg/ml
T3 sequence (looked up): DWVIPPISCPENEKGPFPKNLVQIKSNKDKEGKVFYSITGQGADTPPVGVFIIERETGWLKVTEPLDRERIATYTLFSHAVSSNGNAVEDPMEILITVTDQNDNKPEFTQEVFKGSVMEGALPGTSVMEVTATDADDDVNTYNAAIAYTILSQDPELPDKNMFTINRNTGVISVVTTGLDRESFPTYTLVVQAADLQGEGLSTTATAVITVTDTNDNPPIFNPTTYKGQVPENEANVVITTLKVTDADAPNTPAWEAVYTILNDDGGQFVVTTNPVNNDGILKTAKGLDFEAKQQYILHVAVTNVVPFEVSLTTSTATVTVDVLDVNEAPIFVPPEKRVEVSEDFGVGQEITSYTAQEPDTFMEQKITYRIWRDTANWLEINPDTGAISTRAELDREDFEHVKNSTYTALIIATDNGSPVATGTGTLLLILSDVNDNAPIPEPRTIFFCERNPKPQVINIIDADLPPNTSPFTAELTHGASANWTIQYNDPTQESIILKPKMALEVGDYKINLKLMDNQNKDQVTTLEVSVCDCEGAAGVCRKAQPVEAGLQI
Protocol: as §1

[5] = molecular target: T4, human EpCAM-hFc (human, UniProt P16422 24-265, limits assumed); assay: ELISA, antigen coated 1 µg/ml
T4 sequence (looked up): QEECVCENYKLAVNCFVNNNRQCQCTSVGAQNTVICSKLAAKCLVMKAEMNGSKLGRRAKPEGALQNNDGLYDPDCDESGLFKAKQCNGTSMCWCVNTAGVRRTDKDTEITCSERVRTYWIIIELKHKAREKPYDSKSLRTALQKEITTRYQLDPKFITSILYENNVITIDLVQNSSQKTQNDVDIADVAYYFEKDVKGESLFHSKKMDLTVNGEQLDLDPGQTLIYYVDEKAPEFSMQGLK
Protocol: as §1

[6] = molecular target: human Thrombomodulin (human, UniProt P07204 19-515, limits assumed); assay: ELISA, antigen coated 1 µg/ml
Protocol: as §1

[7] = molecular target: T5, cMSLN-His-Avi (cynomolgus, single biotin on the Avi tag in the biotinylated form); assay: SPR
T5 construct: Monomeric; also called cyno MSLN-His-Avi; cMSLN-Avi-His
T5 chain: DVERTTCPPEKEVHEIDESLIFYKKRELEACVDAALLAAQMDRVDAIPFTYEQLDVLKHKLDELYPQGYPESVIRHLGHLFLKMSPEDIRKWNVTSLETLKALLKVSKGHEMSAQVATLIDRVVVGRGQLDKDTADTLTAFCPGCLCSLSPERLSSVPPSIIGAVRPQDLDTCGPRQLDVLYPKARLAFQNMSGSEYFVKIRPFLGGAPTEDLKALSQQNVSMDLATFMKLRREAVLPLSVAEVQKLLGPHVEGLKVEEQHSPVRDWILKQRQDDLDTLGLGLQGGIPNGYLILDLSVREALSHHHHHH
Protocol: (§2) The association time was 5 min and the dissociation time was 5 min. Running buffer was HBS-EP (GE Healthcare BR100188). Flow cells were regenerated by injecting Glycine-HCl pH2.1 at a flow rate of 30 μl/min for 15 seconds. The data was analysed as described in Example 7.1.

[8] = molecular target: T1, hMSLN-His-Avi; assay: ELISA, hMSLN-His-Avi coated 1 µg/ml
[9] = molecular target: T6, endogenous cell surface human MSLN (human, UniProt Q13421 296-598); assay: flow cytometry, NCI-H226 cells
T6 construct: whole, on cells; The cell line is named under assay; also called cell-surface MSLN on NCI-H226, OVCAR-3 and AsPC-1 cells

[10] = molecular target: T1, hMSLN-His-Avi; assay: SPR, hMSLN-His-Avi in solution
[11] = molecular target: T7, human CD137 on primary human CD8+ T cells (human, UniProt Q07011 24-255); assay: cell-based or functional assay
[12] = molecular target: T1, hMSLN-His-Avi; assay: SPR, hMSLN-His-Avi immobilised ~100 RU, mAb2 injected; immobilised human MSLN (antigen capture), not MSLN in solution
Protocol: 7.1 Binding of CD137/MSLN mAb2 to Human MSLN Under Avid Conditions—Antigen Capture Method Binding of all mAb^2 to MSLN immobilised on a BIAcore chip was tested to determine the binding affinity to human MSLN under avid conditions, where a high concentration of immobilised antigen is available to allow the antibody to bind avidly. […] The association time was 5 min and the dissociation time was 10 min. Running buffer was HBS-EP (GE Healthcare BR100188). Flow cells were regenerated by injecting Glycine-HCl pH1.5 at a flow rate of 30 μl/min for 30 seconds. Data were analysed by double referencing against a flow cell which was intentionally left blank (no antigen coating). The binding kinetics were fitted with a 1:1 Langmuir model to generate binding association (k_a) and dissociation (k_d) rates. Equilibrium binding constants (K_D) were calculated by dividing the dissociation rate by the association rate for each sample. Data analysis was performed with BiaEvaluation software version 3.2.

[13] = molecular target: T1, hMSLN-His-Avi; assay: SPR, mAb2 captured on Protein G, hMSLN-His-Avi in solution
Protocol: as §2

[14] = molecular target: T5, cMSLN-His-Avi; assay: SPR steady state, antigen immobilised ~50 RU
Protocol: The association time was 1000 sec to steady state and the dissociation time was 30 sec. Running buffer was HBS-EP (GE Healthcare BR100188). Flow cells were regenerated by injecting Glycine-HCl pH1.5 at a flow rate of 30 μl/min for 30 seconds. Data were analysed by double referencing against a flow cell which was intentionally left blank (no antigen coating). Steady state affinity model was used to analyse kinetic data using the BiaEvaluation software version 3.2.

[15] = molecular target: T1, hMSLN-His-Avi; assay: ratio of SPR KDs
[16] = molecular target: T6, endogenous cell surface human MSLN; assay: flow cytometry, AsPC-1 cells
[17] = molecular target: T8, hCD137-mFc-Avi (human; mouse, UniProt Q07011 24-186, one biotin on each Avi tag in the biotinylated form); assay: SPR, mAb2 captured by anti-human Fab, hCD137-mFc-Avi in solution
T8 construct: also called human dimeric CD137; human CD137-mFc-Avi
Protocol: A Biacore CM5 chip was coated with anti-human Fab using a Human Fab Capture Kit (GE Healthcare 28958325) according to manufacturer's conditions, to a surface density of approximately 9000 RU. […] The association time was 5 min and the dissociation time was 5 min. Running buffer was HBS-EP. Flow cells were regenerated by injecting two repeat injections of 10 mM glycine-HCl at pH 2.1 at a flow rate of 30 μl/min for 30 seconds. Data analysis was performed as described in earlier examples (see e.g. Example 7.1).

[18] = molecular target: T6, endogenous cell surface human MSLN; assay: flow cytometry, OVCAR-3 cells
[19] = molecular target: T7, human CD137 on primary human CD8+ T …; assay: cell-based or functional assay; remark: listed apart in the source
[20] = molecular target: T1, hMSLN-His-Avi; assay: ratio of SPR KDs; remark: listed apart in the source
[21] = molecular target: T1, hMSLN-His-Avi; assay: SPR, hMSLN-His-Avi immobilised
[22] = molecular target: T7, human CD137 on primary human CD8+ T …; assay: cell-based or functional assay; remark: listed apart in the source

T1 sequence (Q13421 other isoform, or with tags, fused parts or gaps): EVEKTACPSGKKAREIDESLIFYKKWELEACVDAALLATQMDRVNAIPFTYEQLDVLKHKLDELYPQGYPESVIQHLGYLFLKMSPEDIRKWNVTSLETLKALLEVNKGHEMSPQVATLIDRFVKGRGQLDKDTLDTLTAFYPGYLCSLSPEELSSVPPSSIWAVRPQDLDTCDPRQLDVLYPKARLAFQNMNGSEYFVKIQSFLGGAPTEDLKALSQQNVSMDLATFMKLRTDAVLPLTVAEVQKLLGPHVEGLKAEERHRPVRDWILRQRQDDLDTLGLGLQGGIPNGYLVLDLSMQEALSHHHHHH
T6 sequence (Q13421 other isoform, or with tags, fused parts or gaps limits assumed): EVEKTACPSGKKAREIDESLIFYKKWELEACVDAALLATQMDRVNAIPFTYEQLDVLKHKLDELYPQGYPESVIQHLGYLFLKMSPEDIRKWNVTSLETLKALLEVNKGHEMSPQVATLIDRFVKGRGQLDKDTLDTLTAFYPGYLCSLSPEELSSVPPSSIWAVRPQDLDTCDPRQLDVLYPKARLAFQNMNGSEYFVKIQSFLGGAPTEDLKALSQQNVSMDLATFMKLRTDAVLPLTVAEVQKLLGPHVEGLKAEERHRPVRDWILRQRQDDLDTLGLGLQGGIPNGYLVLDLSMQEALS
T7 sequence (Q07011 24-255): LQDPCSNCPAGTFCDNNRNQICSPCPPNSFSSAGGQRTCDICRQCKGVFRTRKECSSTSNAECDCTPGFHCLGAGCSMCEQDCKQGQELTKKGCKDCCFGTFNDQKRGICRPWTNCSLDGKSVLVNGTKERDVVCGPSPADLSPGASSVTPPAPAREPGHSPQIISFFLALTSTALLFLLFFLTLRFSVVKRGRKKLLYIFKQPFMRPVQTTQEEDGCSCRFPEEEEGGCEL
T8 sequence (Q07011 24-186): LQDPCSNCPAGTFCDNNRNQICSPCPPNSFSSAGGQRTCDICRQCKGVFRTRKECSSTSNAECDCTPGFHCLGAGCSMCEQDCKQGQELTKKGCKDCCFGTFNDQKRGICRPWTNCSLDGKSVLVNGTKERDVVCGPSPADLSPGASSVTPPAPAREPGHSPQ
Chain of human Thrombomodulin (P07204 19-515 limits assumed): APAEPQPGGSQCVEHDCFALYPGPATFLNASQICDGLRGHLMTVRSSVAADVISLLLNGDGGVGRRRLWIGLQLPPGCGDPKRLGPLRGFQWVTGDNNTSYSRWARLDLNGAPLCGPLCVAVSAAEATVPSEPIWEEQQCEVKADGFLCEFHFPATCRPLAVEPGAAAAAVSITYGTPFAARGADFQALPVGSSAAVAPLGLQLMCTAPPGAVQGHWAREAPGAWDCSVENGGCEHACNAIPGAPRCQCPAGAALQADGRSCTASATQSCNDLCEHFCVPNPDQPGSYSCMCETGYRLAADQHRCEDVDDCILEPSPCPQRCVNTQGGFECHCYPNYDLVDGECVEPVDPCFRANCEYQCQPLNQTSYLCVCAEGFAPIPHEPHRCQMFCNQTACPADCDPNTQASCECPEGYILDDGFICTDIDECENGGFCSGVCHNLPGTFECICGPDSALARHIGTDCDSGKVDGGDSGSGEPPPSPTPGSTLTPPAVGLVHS

B1: FS28-024 (mAb in G1-AA format) (antibody, human IgG1, V domains shown)
VH: EVQLLESGGGLVQPGGSLRLSCAASGFTLSYSSMSWVRQAPGKGLEWVSFITPSTGYTHYADSVKGRFTISRDNSKNTLYLQMNSLRAEDTAVYYCARRALTFDYWGQGTLVTVSS
VL: EIVLTQSPGTLSLSPGERATLSCRASQSVSSSYLAWYQQKPGQAPRLLIYGASSRATGIPDRFSGSGSGTDFTLTISRLEPEDFAVYYCQQASSYPLTFGQGTKVEIK
Q: For B1, which Kd [1] is on record?
A: 0.77 nM

Q: And the Kd [2]?
A: 0.23 nM

Q: Does B1 bind [3]?
A: no binding (tested: 1000 nM)

Q: Does B1 bind [4]?
A: no binding (tested: 1000 nM)

Q: Does B1 bind [5]?
A: no binding (tested: 1000 nM)

Q: Does B1 bind [6]?
A: no binding (tested: 1000 nM)

Q: What about the “fold lower affinity for cyno MSLN than for human MSLN” value [7] of the same binder?
A: ~5 fold

Q: What about the EC50 [8] of the same binder?
A: ~0.5 nM

Q: And the maximum binding signal [8]?
A: 3

B2: FS22-172-003-AA/FS28-256-271 (bispecific antibody, human IgG1, kappa, L234A L235A, V domains shown)
VH: EVQLLESGGGLVQPGGSLRLSCAASGFTFTHTYMSWVRQAPGKGLEWVSAISPTYSTTNYADSVKGRFTISRDNNKNTLYLQMNSLRAEDTAVYYCARYNAYHAALDYWGQGTLVTVSS
VL: EIVLTQSPGTLSLSPGERATLSCRASQSVSSSYLAWYQQKPGQAPRLLIYGASSRATGIPDRFSGSGSGTDFTLTISRLEPEDFAVYYCQQTVPYPYTFGQGTKVEIKR
notes: IgG1 mAb^2 with LALA; also called anti-human CD137/MSLN mAb^2
Q: How did the EC50 [9] turn out when B2 was run?
A: 0.304 nM

Q: And the Kd [10]?
A: 18.2 nM

Q: And the “fold change of IL-2 EC50 with soluble MSLN against none, NCI-H226 co-culture” value [11]?
A: 3 fold

Q: What about the Kd [12] of the same binder?
A: 5.9 nM

Q: And the Kd [13]?
A: 18.2 nM

Q: And the “fold difference of binding to cMSLN against hMSLN” value [14]?
A: ≤ 3 fold

Q: And the “KD ratio in solution/immobilised human MSLN” value [15]?
A: 3

Q: And the EC50 [16]?
A: 0.293 nM

Q: What about the Kd [17] of the same binder?
A: 1.26 nM

Q: And the EC50 [18]?
A: 0.306 nM

Q: What about the “IFNγ production EC50 (96 h), AsPC-1 co-culture, Donor G” value [19] of the same binder?
A: 0.147 nM

Q: What about the “IFNγ production EC50 (96 h), AsPC-1 co-culture, Donor H” value [19] of the same binder?
A: 0.164 nM

Q: What about the “IFNγ production EC50 (96 h), AsPC-1 co-culture, Donor J” value [19] of the same binder?
A: 0.344 nM

Q: And the “IFNγ production EC50 (96 h), NCI-H226 co-culture, Donor G” value [19]?
A: 0.0332 nM

Q: And the “IFNγ production EC50 (96 h), NCI-H226 co-culture, Donor H” value [19]?
A: 0.0732 nM

Q: What about the “IFNγ production EC50 (96 h), OVCAR-3 co-culture, Donor H” value [19] of the same binder?
A: 0.084 nM

Q: And the “IL-2 production EC50 (72 h), AsPC-1 co-culture, Donor C” value [19]?
A: 0.778 nM

Q: What about the “IL-2 production EC50 (72 h), AsPC-1 co-culture, Donor D” value [19] of the same binder?
A: 0.841 nM

Q: What about the “IL-2 production EC50 (72 h), NCI-H226 co-culture, Donor C” value [19] of the same binder?
A: 0.111 nM

Q: What about the “IL-2 production EC50 (72 h), NCI-H226 co-culture, Donor D” value [19] of the same binder?
A: 0.112 nM

Q: And the “IL-2 production EC50 (72 h), NCI-H226 co-culture, Donor E” value [19]?
A: 0.0722 nM

Q: What about the “IL-2 production EC50 (72 h), NCI-H226 co-culture, Donor F” value [19] of the same binder?
A: 0.0723 nM

Q: What about the “IL-2 production EC50 (72 h), OVCAR-3 co-culture, Donor E” value [19] of the same binder?
A: 0.145 nM

Q: And the “IL-2 production EC50 (72 h), OVCAR-3 co-culture, Donor F” value [19]?
A: 0.0693 nM

Q: What about the “ratio of KD in solution/immobilised” value [20] of the same binder?
A: 3

Q: What about the Kd [21] of the same binder?
A: 5.9 nM

Q: And the “IL-2 release EC50, NCI-H226 co-culture, +2 nM sMSLN” value [22]?
A: 0.139 nM

Q: And the “IL-2 release EC50, NCI-H226 co-culture, +20 nM sMSLN” value [22]?
A: 0.353 nM

Q: What about the “IL-2 release EC50, NCI-H226 co-culture, no sMSLN” value [22] of the same binder?
A: 0.117 nM
